This series can be described thus: soluble on expression in E. coli; label from the status in PepcDB or PDB records.
Take “MSLRIAVVGATGRIGSKLTRTLLGAGHQVKALSRGGAALEALVEAGAEPFLGSFDTGAGALDTFFQDVEAAFLMVKTDWNNIEGHYPAVAQRFVDALRGSPVKLAVSLSAMGSDVDGKTGHFELFHHLDQRLNELNDIDMVHLRAAWFMENTLAWTASVAKYGRLAWFYEPDLKMPWVATDDIAGLAAKELTNPTGDHRVIRETGSEDLTMNELAAMIGREIGKPVEYRFIDRGRKEIENEYLARFGTPEHWLDDSRSADALNHGVVRFQGGDDVRPVLPTTMEAFLKTIWTPRYLEALASEEGHHHHHH”: the “soluble on expression in E. coli” value is “soluble”.

“FLNTISTKDFKQKMADKTTGFVYVGRPTCEDCQAFQPILKKELEKRQPDQKMAYYNTDKASEKSRDDMIALLKKMDIDSVPTMVYLKDGKVASTYAATDEPAKLTNWMNKVSG”: the “soluble on expression in E. coli” value is recorded as “not soluble”.

Take “SIPALHRLVTVNMIPDASNDNIMVMRSYQIQATREILQRMKEMEASGLVQKEGGYIWHTTGSGKTVTSFKVAQLLASAPRIKNVLFIVDRIDLIDQTLENFKSFAYAHFKNRIKKVNGRELKRELKRKGSSQILLISVQGLTKAVKKGLENDDWNVIIMDEAHRSASGESVKLIKKALKKTTWFGFTGTPN”: the “soluble on expression in E. coli” value is recorded as “not soluble”.

Regarding “MVDTISVLNPIHLDLSVDPQDNVRISARSTTSSSASTSSDSELMSPRAEELLRMQAELRATRTALAEKDKKMTQIQVTVDAEVQELTEKLFQEAYKMVNTAEARREKAGKLLTESRLEVEVLQAEVRALKELISAPGMGQNHFKQTTSPEHKSTLSKLFNGSSSSSKKQKDAANVSDKKKASSLPSTSTYTLTPSEDREQKEANAVEEIDPILFSEFEFWREAGHPTTSHPFIDRVTVEEVEPCMLFENSELSEEIMKAIRENRVQLEPLNELKPSVRICALTNASRFCPYRVRTGDEEQEWHYVSLIARNRVSYSTFLGLGTIDNFN”, the “soluble on expression in E. coli” value was “not soluble”.

Regarding “MVSRHIPERLKKKIYQEANMTCPNCGERDVSTFEIHHIQPFVDVKKHEERNLILLCSNCHSKATVGELTEIEVLRLKVGLISSSSGQSKETMPSNVITLDSVKNHGVIANQVTLNNSPAKVVLLPAVGSIASSLKHQNYIKYLIDKYHAYKIVEVGKSNMKYPVFYNALKRKFGAKWDMVPIDRFLELSTYIQDRIEKTVLGKKLKAQGKKSYSTFEEYLAKNCSLEHHHHHH”, the “soluble on expression in E. coli” value is listed as “not soluble”.

On to “MGSDKIHHHHHHMKKIIYFITLLFLVGCVDLSENMYNDLGKDNYYQTEQEYDAAFMNQYAFLRTMYAWNVFYLQEITTDEACLPQKGRDGYDGGIYQRMHWHTWTDQDVIINGAWQELFKAVGFCNQVLNDLNNSRSDILPENKKKLYIAESRALRAFFYSMLVDMFGNVPIVEKVSELNPPTKTRTEVFNYVEKEIAEVKDQLLRSTDTGSYGRFTQEAALALLSRLYLNAEVYTGTSRLDDCISVSQTLLQKGYQLESTWDAPFAWNNENSKENIWVIPNDEIVANEMSVLFYRNIHWSQRSQWDWKNPNGGWNGVCTVREFIETYDITHDRRCKYDPQNGMYGQFMWGPQFDLSGNPILGTNEYAGQQLDFTLDLPDMVNNKENAGARNIKYKVKVGAQGMENDFALFRIAEINFNLAEATLRKSNEVDSKALEGINKIRTRAGVSTYATGELTLDELYREKGREMCYETLRRTDMIRFGRFIQPMWDKNYTDKETINLFPIPLQATKLNPELKQNPGYTK”, for which the “soluble on expression in E. coli” value is reported as “not soluble”.

Consider “MGSDKIHHHHHHMMLTTKLIYCCLVSIVLHPINNLNPKPYISLFNLQGILLPTQFSHSLTSLDAFAPRLLAWFEINGRHDLPWQQHQTDTPNPYIVWLSEVMLQQTQVTTVLPYFARFMASFPTVQDLAAAEWDTVAEHWAGLGYYARARNLHKGAKQLVEVIDETGEYPTTLAGWEAISGVGPSTAGAIMAMGLHRYGVICDGNVKRVLTRWAAIDGDITKSATTKELWALAERLTPKENSGLFAQAMMDMGATLCTRSKPACLLCPLQDDCLAHAQGRETDYPVKAKKQPKPSKFSNALLIENENGEILWLQRPDNGIWGGLWSLPLAFIEKISGKVAVKDADKNKNKELIAANDNQLLEVASNEKVYETEFTTAEQIINEWINKNELVAKSVNDTLLDDSPIKHSLTHFHWYLTPQTVNLNTKQAQEITEALQAGEININWLNADDAQATLGLPKAMVKILE”, for which the “soluble on expression in E. coli” value is given as “not soluble”.

“MGHHHHHHSHQADEGQARKSQLQRRFKEFLRQYRVGTDRTGFTFKYRDELKRHYNLGEYWIEVEMEDLASFDEDLADYLYKQPAEHLQLLEEAAKEVADEVTRPRPSGEEVLQDIQVMLKSDASPSSIRSLKSDMMSHLVKIPGIIIAASAVRAKATRISIQCRSCRNTLTNIAMRPGLEGYALPRKCNTDQAGRPKCPLDPYFIMPDKCKCVDFQTLKLQELPDAVPHGEMPRHMQLYCDRYLCDKVVPGNRVTIMGIYSIKKFGLTTSRGRDRVGVGIRSSYIRVLGIQVDTDGSGR”: the “soluble on expression in E. coli” value was “not soluble”.

In the case of “VLASILLSQAAYESNYGSSLLSVKYHNIYSLPARPGQEHIYLKDNVYSKGKWQYQKVDFAVFRDWSSSMSSYLEELRQGRWGESTYKEVAGTTSYKVAAEKLQAAGFNSDPDYTKHLISIIETYNL”, the “soluble on expression in E. coli” value is on record as “not soluble”.

Take “MKDRELLAKSITTKDAVSDGRESPSLLSDKLSRLPWSTLYASVFCAGVLLLPFSGQAVEPPVAAKASENKNQLKTLQQDIAEKEKSVQQQKKQRSSLLDQLKQQENTISQTSRSLRETQAALAELSKDIASLTTSIEKLQNQQSQQQSILSKQLAAAFKQGKHSSLQLILSGEESQRSERILAYFSYLNEARQKAIEELKQTRTTLSAEKKMLEQKQNQHKALLDEQKAQQQKLEQARIARQKTLTSLEASLEKDQQSLAELKLNESRLRDQIAKAEREAKARAEREAKEAARVREQVKVKEQQAKKTGSSYKPSESERSLMARTGGLGRPGGQALWPVRGNVSHRFGEPLQGELRWKGMVITAPEGSEVKAIADGRVLLADWLQGYGLVVVIEHGKGDMSLYGYNQSALVNVGAQVKAGQPIALVGTSGGQGEPSLYFEIRRQGQAVNPQPWLGR”: the “soluble on expression in E. coli” value is “not soluble”.

Regarding “AMADIGSMGDPLTWSKALKKLEKVTVQGSQKLTTGNCNWALSLVDLFHDTNFVKEKDWQLRDVIPLLEDVTQTLSGQEREAFERTWWAISAVKMGLQINNVVDGKASFQLLRAKYEKKTANKKQSEPSEEY”, the “soluble on expression in E. coli” value is recorded as “soluble”.

For “MGSDKIHHHHHHMNVFPADRIEAMHDAGLDILERLGIKVLLPEARAIFATAGAMVKDDMVYIGRDIVEASLASAPRRIEGRAGAPERDVVLELGSLVFQPGAGAPHATDEVRGRRPGCARDFKELIQLTNHFDVFHMLPPLVEPQDIATNIRHYFTLECQLTESNKFPFIFSRGTPQVTESFEMLRDFRGLSDAEFEAEPRCYTIINTNSPRTLDVPMAQGLIDFARMGQISIVTPFTLMGAMAPITVAGAITLSHAEALAAITLTQLTNPGAPVCYGTFTSNVDMKSGAPAFGTPSHFQASLAAGQLARHIGLPWRSAAGSAANLNDVQAANENQFGLWGCLMAGATVVIHSAGWLEGGLSISYEKLITDAEVLNMVAELCAGAQASDAEIGLDAIEDTAPSGHFFATAQTMARYQTEFYEPIIHDYANFGTWTERGSKDASTRARDVWQGILADPKSPTVNGDRLSALQDDIARRTQAGGAYPES”, the “soluble on expression in E. coli” value is listed as “not soluble”.

For the sequence “MSDVTNTWNERYDTEEFVYGREPNAFLAGVSAMMPPGDVLCLAEGEGRNAVFLARQGHRVLAVDASAVGLSKAARLAEEHGVRIETLTTDLADLVIEPGRWDAIVSIFCHVPPPVRRVLHRQAVAGLRPGGLFVLEAYTPAQLELRTGGPPTVELLMTLADLREELAGLEFLQAREIERDVVEGRLHTGRGAVVQIVARKPLEHHHHHH”, the “soluble on expression in E. coli” value is “soluble”.

Consider “MTMVKTLVALATERMLLKTSGPTFLRGIEFMYAAGLAPDRLSVMMTSSHKYVLQFHSKCDIRPFAANYPNFGRVLRGIVHVREWRIKSIEFVNVAFYMRDVDNLERAIEKLGVELVLLRNCTYPGVQRGDEAVKFLSALNRKKQAVVCEYGDDRLKHRIGRRSSGNRTRRASRNGQEIVNPAIAPGAAAAAQPALEAAPAAPAAGAAAPEANAPQAAPPGIRRPIPLNPDQARHIIPQLLNPGGAQPAPVQDGPVRGPPGIINQGRVVVGAHVYEFRAADVPNADGVPAVHNINHLLNVLNENAGNDVRVIVLPSRVGEGLPIHFNNNDLIFRHQSRPQPAPQQAAAAAAAGAAPAVAVGAEPLPQPDDVQIAPIPADERQARYARVQARLGHMMNARMRQNQEDQQYYYDQQPPNLMVVGTAHAHYRRHMNAQAHQQQREPSWNNYAVANAPPAIIQRNLDAPAPMFGVAVNEPQVQRNGDDSNDSTDREEIYDAEQQRQEALRDLVADPEAQPNFAPVEAQAVDLDMLEEEGEDDEVMEVGGVDGQFMMDGRAVME”, for which the “soluble on expression in E. coli” value is “not soluble”.

Regarding “MSLGPILVASEDYGRRVELSAMLRGFGYRVIEAENGLRTIDLLHRRKNIVLALLDVVMSDLSVGDLIKMIRVAGVAVPIVVIAQQENQELLQKALTAGAIDYWIHPVTLLRLRVTLDTLALISALEREVHYIRRKKENHLRFSDLSIKSRAMQIVLEQSKRAASSLQNLLIEGEVGTGRETLARIIHHEGLLSEGDFIRFQCLAIVDPEEENHQWFKEFIPLVSSLEKGTLCLCDVDRLEPIQQKRFMHYLKEREKATKDKVFPFRIIAISTSRLSDLVKEGFFLHSLFEQFSQLSISVPALRELRDDFPDLTQRLIDRIITETGRSHVHGLAGSALSLLMQYDWPGNRNGLENFLFRAILLSDGPLLTVRDFPQLMGNSLMNVPKIIESNMQEDHEQESVKFLDVDGHVRTFAEMERDIIEKAFKHYKGHMSEIARRLRIGRSTLYRKIEGLRAISSQEGHHHHHH”, the “soluble on expression in E. coli” value was “soluble”.

Take “MEHHHHHHATNLRGVMAALLTPFDQQQALDKASLRRLVQFNIQQGIDGLYVGGSTGEAFVQSLSEREQVLEIVAEEAKGKIKLIAHVGCVSTAESQQLAASAKRYGFDAVSAVTPFYYPFSFEEHCDHYRAIIDSADGLPMVVYNIPALSGVKLTLDQINTLVTLPGVGALKQTSGDLYQMEQIRREHPDLVLYNGYDNIFASGLLAGADGGIGSTYNIMGWRYQGIVKALKEGDIQTAQKLQTECNKVIDLLIKTGVFRGLKTVLHYMDVVSVPLCRKPFGPVDEKYLPELKALAQQLMQER”: the “soluble on expression in E. coli” value is on record as “soluble”.

Turning to “SGLRDWLRTVCCCCGCECLEERALPEKEPLVSDNNPYSSFGATLVRDDEKNLWSMPHDVSHTEADDDRTLYNLIVIRNQQAKDSEEWQKLNYDIHTLRQVRREVRNRWKCILEDLGFQKEADSLLSVTKLSTISDSKNTRKAREMLLKLAEETNIFPTSWELSERYLFVVDRLIALDAAEEFFKLARRTYPKKPGVPCLADGQKELHYLPFPSP”, the “soluble on expression in E. coli” value is recorded as “soluble”.

As for “MNKRNTQQRRHSIISILNEQGEVSVDELSLRFETSEVTIRKDLAELEKTGLLLRRYGGAVAIPDEVTQQFSAKIAPNKLSIAKAAAQLIKDHNRIIIDSGTTTSGLIAELNQKRGLVVMTNALHLANAIHELENEPTLLMTGGTWDPHSESFQGQVAEQVLRSYNFDQLFIGADGIDLARGTTTFNELTGLSKVMAEVSREVIVMVDSDKIGKRIPNLELPWSKISVLVTDARIEESALKQITEQGVKVILAPYSPLEHHHHHH”, the “soluble on expression in E. coli” value is “soluble”.

For the sequence “QDSTSDLIPAPPLSKVPLQQNFQDNQFHGKWYVVGLAGNRILRDDQHPMNMYATIYELKEDKSYNVTSVISSHKKCEYTIATFVPGSQPGEFTLGNIKSYGDKTSYLVRVVSTDYNQYAVVFFKLAEDNAEFFAITIYGRTKELASELKENFIRFSKSLGLPENHIVFPVPIDQCIDG”, the “soluble on expression in E. coli” value is “soluble”.

As to “MSLSRVFVIGAAGKVGQRLIKKLGDGGHEVIALHRKEEQSVLIKAAGALPLLANLVEMDAAALSSAMAGSDVVVFTAGAGGAGIELTNAIDGEGLKTSVAAAELAGVRRFLLVSAFPEAARGTDTSAGFENYMRVKKHADVCLASSELDWVILRPGTLVDSAGSGQVRAGLAIPYGDIPRDDVAAFLAALVDQPEISRQIIELTEGTTPVELAIKALGTREGHHHHHH”, the “soluble on expression in E. coli” value was “soluble”.

Source of the values: the DeepSol protein solubility set.
